{
  "source": "patent US20050251885A1",
  "about": "“Method for enhancing yield of recombinant protein production from plants” (UNIVERSITE LAVAL, priority 2002, published 2005)",
  "tested_on": "alfalfa leaf proteases (fraction #8)",
  "experiment": "Fibronectin proteolysis by alfalfa leaf Mono-Q fraction #8 with protease inhibitors, immunodetection",
  "type": "biochemical, alfalfa (cultivar Saranac)",
  "conditions": "for proteolysis of fibronectin by the Mono-Q fraction in presence of inhibitor: 5 μl fraction #8, 350 ng fibronectin, 37° C., 15 min, FIG. 5B",
  "protocol": "Firstly, a protein extract from alfalfa leaves was separated by chromatography to isolate a specific fraction containing the greatest protease activity. Alfalfa (cultivar Saranac) leaves were extracted by grinding in liquid nitrogen and resolubilization in 50 mM Tris-HCl, pH 6,8, containing 10 mM β-mercaptoethanol. The crude extract was centrifuged for 15 min at 10000 g at 4° C., and the supernatant was filtered through a 0.3 μm pore size filter. Fifteen mg of leaf proteins were then loaded on of a Mono-Q FPLC column (Pharmacia) equilibrated with extraction buffer. Proteins were eluted with a linear gradient of KCl (0 to 0.7 M) in extraction buffer, at a flow rate of 2 ml/min. Fractions of 500 μl were collected, and sample of each fraction was loaded onto a gelatin/PAGE gel (FIG. 5A). Fraction #8, which caused the highest proteolysis of gelatin in gel, was use to assess the protective effect of α-1 antichyinotrypsin.\nSecondly, the identified fraction #8 was used in conjunction with various protease inhibitors to identify potential candidates for the inhibition of fibronectin proteolysis. In the experiment illustrated in FIG. 5B, 5 μl of fraction #8 was mixed with 350 ng of fibronectin and incubated at 37° C. for 15 min, in the presence of 2 μl H2O (lane 2), 2 μl of 10 mM chymostatin (lane 3) or 2 μl α-1 antichymotrypsin (lane 4). The control (lane 1) contained 5 μl extraction of buffer instead of alfalfa proteases. The reaction was stopped after 15 min. and fibronectin was immunodetected as in FIG. 1C. […] Note that both protein (α-1 antichymotrypsin) and chemical (chymostatin) molecules were efficient to decrease degradation of fibronectin.",
  "data": [
    {"molecule": "CC(C)C[C@H](NC(=O)[C@@H](NC(=O)N[C@@H](Cc1ccccc1)C(=O)O)[C@@H]1CCN=C(N)N1)C(=O)N[C@H](C=O)Cc1ccccc1", "note": "[chymostatin, reference compound]", "values": [
      {"measurement": "proteolysis of fibronectin by the Mono-Q fraction in presence of inhibitor", "result": "prevented"}
    ]},
    {"molecule": "α-1 antichymotrypsin: human serpin, inhibitor of chymotrypsin-like proteases (protein, UniProt P01011 24-423, looked up) Alpha-1-antichymotrypsin: HPNSPLDEENLTQENQDRGTHVDLGLASANVDFAFSLYKQLVLKAPDKNVIFSPLSISTALAFLSLGAHNTTLTEILKGLKFNLTETSEAEIHQSFQHLLRTLNQSSDELQLSMGNAMFVKEQLSLLDRFTEDAKRLYGSEAFATDFQDSAAAKKLINDYVKNGTRGKITDLIKDLDSQTMMVLVNYIFFKAKWEMPFDPQDTHQSRFYLSKKKWVMVPMMSLHHLTIPYFRDEELSCTVVELKYTGNASALFILPDQDKMEEVEAMLLPETLKRWRDSLEFREIGELYLPKFSISRDYNLNDILLQLGIEEAFTSKADLSGITGARNLAVSQVVHKAVLDVFEEGTEASAATAVKITLLSALVETRTIVRFNRPFLMIIVPTDTQNIFFMSKVTNPKQA", "values": [
      {"measurement": "proteolysis of fibronectin by the Mono-Q fraction in presence of inhibitor", "result": "prevented"},
      {"measurement": "stability of fibronectin on inhibiting alfalfa proteases", "setting": "FIG. 5", "result": "significantly increased"}
    ]}
  ]
}
